Source: patent US20110230416A1

How the values were obtained:
[1] = molecular target: hLDLR of non-genetically modified human cells (human fibroblasts, HUVEC) (human) (UniProt P01130); assay: FACS on HUVEC, competition; displaced: bacterial viruses expressing SEQ ID NO: 21
[2] = molecular target: hLDLR of non-genetically modified human cells (human fibroblasts, HUVEC) (human) (UniProt P01130); assay: FACS on HUVEC, competition; displaced: bacterial viruses expressing SEQ ID NO: 11

Chain of hLDLR of non-genetically modified human cells (human fibroblasts, HUVEC) (human) (P01130 22-860): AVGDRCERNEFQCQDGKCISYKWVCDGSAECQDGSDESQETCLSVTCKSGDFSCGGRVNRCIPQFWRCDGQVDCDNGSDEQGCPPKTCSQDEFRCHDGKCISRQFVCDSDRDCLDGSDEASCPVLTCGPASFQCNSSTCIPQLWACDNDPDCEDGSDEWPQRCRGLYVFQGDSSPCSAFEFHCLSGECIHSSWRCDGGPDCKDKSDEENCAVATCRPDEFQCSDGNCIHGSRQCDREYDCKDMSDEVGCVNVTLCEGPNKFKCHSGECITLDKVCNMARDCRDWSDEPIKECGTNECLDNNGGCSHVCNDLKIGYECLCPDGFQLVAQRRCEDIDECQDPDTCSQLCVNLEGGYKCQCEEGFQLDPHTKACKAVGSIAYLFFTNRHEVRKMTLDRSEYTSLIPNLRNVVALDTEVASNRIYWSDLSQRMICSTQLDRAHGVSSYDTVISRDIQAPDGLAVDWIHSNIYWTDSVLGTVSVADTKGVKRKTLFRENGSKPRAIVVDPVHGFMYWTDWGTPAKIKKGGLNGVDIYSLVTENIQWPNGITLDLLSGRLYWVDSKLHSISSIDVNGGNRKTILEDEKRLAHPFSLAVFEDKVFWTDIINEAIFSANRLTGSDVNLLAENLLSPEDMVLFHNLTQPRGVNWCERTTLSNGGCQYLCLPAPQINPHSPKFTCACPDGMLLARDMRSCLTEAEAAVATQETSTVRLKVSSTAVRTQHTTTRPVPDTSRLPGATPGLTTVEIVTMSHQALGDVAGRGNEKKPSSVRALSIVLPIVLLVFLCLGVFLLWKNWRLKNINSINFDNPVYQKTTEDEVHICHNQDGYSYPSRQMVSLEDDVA

- loss of signal in Q2 on adding LDL [1]: 85%
- loss of signal in Q2 on adding LDL [2]: 17%
Substance: LDL, natural ligand of hLDLR
